# Experimental data as given in the supplement of paper PMC9170038.
# Tested on: MS2 coat protein
# Experiment: apparent KD of MS2 coat protein; higher = weaker reporter binding
# Settings: Eterna round: R107
# Summary of the method: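 Designed RNA switches were transcribed on-chip from Illumina sequencing clusters. SNAP-549-labelled MS2 coat protein was titrated onto them in twofold steps from 0.7 or 1.5 nM to 3 µM in 100 mM Tris-HCl pH 7.5, 80 mM KCl, 4 mM MgCl2, either without or with constant ligand. Apparent KD reflects the per-design median of normalised cluster binding-curve fits.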
# [1] = input ligand: theophylline 20 uM
# [2] = input ligand: tryptophan 2.4 mM
# [3] = input ligand: theophylline 2 mM
Sequence,apparent KD of MS2 coat protein (input ligand: arginine 13.2 mM),apparent KD of MS2 coat protein [1],apparent KD of MS2 coat protein [2],apparent KD of MS2 coat protein (input ligand: none),apparent KD of MS2 coat protein [3]
GCAAUAACGAUUGAUACCAGCAUGUUAACAUGAGGAUCACCCAUGUUAAGGAUAACAUAAUGCCCUUGGCAGCAACGGAAAGCCG [Ac],16.8 nM,22.9 nM,18.5 nM,,
AAGGAAAAGGCGGCCGCCACUGGAAAGGCGAAAGCCAAGAAAACAUGAGGAUCACCCAUGUCAUGUAGGACCGGGCCAAAAGGAA,10 nM,26.3 nM,23.7 nM,21.9 nM,14.7 nM
UUACCGUAAGGUAUACCGGUCUACAAUAAUCGAGGACCGGUACGGCCGCCACUCGAUGUGUAAUCACAUGAGGAUCACCCAUGUA [Tryptophan A 19],21.1 nM,27.7 nM,,,27.4 nM
AAUGAGUGGUGGUCAAGUGAUCCUCAUGAACGAGGACCGGUACGGCCGCCACUCGAUAACAUGAGGAUCACCCAUGUAAUAAUAA [|T'-M'-Trp-Ms2|_Design8],15.6 nM,18.9 nM,,,22.4 nM
UAUAUAUUGAUGGAUACCAGCAGAGAAAACGUUUAUCCUAACAUGAGGAUCACCCAUGUAUGCCCUUGGCAGCUGUUGAUAUAUA [8.K],21.7 nM,28.7 nM,18.4 nM,,
UGUGUAAUUGUCUGGUAGAAUUAUUUGUUUCGAGGACCGGUACGGCCGCCACUCGAUAUUUACAUGAGGAUCACCCAUGUUAGCU [JR_SSTryptoA_Sub004],13.9 nM,14.3 nM,11.6 nM,14 nM,14.9 nM
GGUCUCUGGAGCGAUACCAGCUUAAUUGUACUGGCCAGGUACAUGAGGAUCACCCAUGUAAGCCCUUGGCAGCGCUCCAGAGACC [#1 Exclusion - Theophylline B Attempt #12 (HarryS)],10.6 nM,13.6 nM,11.6 nM,12.1 nM,24 nM
UACCGAUGAAGAAGGAGCGAUUUUAUGUUACAUGAGGAUCACCCAUGUGGACUAGGUGAAGAUCAGGUAGGUCGCUUCAUCGGUA [SSAB NP+V+V2 #20],19.8 nM,31.9 nM,24.5 nM,20.3 nM,22 nM
AGAGUCAGACAAAAGUCUGGCUCAACCGAAGGAGCGUCCGAAAGGACAGGUAGGUCGCGGUUACCUGAGGAUCACCCGGGUUCCU [ArgAS 9 #OpenEnded #AlternativeMS2],100 nM,110 nM,659 nM,65 nM,1040 nM
GGCUGCGAUGGCGGAAAUUAUUUACAUAGGCGAGGACCGGUACGGCCGCCACUCGAACGUACAUGAGGAUCACCCAUGUGAUAAU [theeternabot_sameState_MS2_Trp_A_1],29 nM,59.9 nM,,,70.8 nM
GGACUAACCAGAAGGAGCGAUACGCAGAAACUGCAAUUUCCUCUACACGAGGAUCACCCGUGUCAGGUAGGUCGCUGGUUAGUCG,25.2 nM,35.2 nM,26.7 nM,26.9 nM,29.7 nM
GGUGGCGUGACGGAUACCAGCCACCGCGGCAACGCAACAUGAGGAUCACCCAUGUUGGGUGGCCCUUGGCAGCUGUCGUGCGGCG [#1 Same State - Theophylline B Attempt #23 (HarryS)],47.4 nM,79.3 nM,78.1 nM,86.2 nM,27.5 nM
AUACAUGAGGAUCACCCAUGUUAUAGUGAAGGAGCGACAUUUAUGUCAGGUAGGUCGCACUAUUGUUUAAUGAUUCUUGGAUCUU [JR_ExcArginiA_Sub017],16.9 nM,22.4 nM,18.5 nM,15.2 nM,15.1 nM
CGAAUAUAGACGGCCGCCACUCUACAAACAUGAGGAUCACCCAUGUUCACAUAGAGGAAACUCAUGAGGACCGGGUCAUAGGCUU [#20 Same State - Tryptophan B],23.5 nM,32.5 nM,,,27.4 nM
GGACUAACCAGAAGGAGCGGCACGCAGAAACUGCUAAUUCCUCCGCACGAGGAUCACCCGUGUCAGGUAGGUCGCUGGUUAGUCG [ArgBX 28],14.9 nM,13.8 nM,13 nM,11.3 nM,14.8 nM
CUGACAUGAGGAUCACCCAUGUACACUGAAGGAGCGUCGAGAAUGACAGGUAGGUCGCAGAAUAAUAAUGGUGAUGUUUAGGUAA [Exclusion Arginine A GF 2],24 nM,34.1 nM,23.4 nM,20.8 nM,26.3 nM
UGUAUGGACUGAAGGAGCGGGAAAUAAACCUGAGGAUCACCCAGGUAAUAGGCGAAAGCCACCCAGGUAGGUCGCAGUCCAUACU,10.7 nM,14.3 nM,10.6 nM,9.91 nM,12 nM
AAAAUCCUACCUGAGGAUCACCCAGGUGAAGGAGCGCCCGAAAGGGCAGGUAGGUCGCACCUGAGGAUCACCCUGGUACCUAAAA [ArgAX 27 #DoubleMs2 #OpenEnded #AlternativeMS2],86.2 nM,85.8 nM,63.1 nM,61 nM,104 nM
AGAGUCUAGUCGGCCGCCACUCAUGUCCAAAGGACAUGAGGAUCACCCAUGUACCUAAGGUACAUGAGGACCGGGACUGGACUCA [Omei Tryp B SS C v5],13.1 nM,131 nM,7.92 nM,24.4 nM,336 nM

Sequence,apparent KD of MS2 coat protein (input ligand: arginine 13.2 mM),apparent KD of MS2 coat protein [1],apparent KD of MS2 coat protein [2],apparent KD of MS2 coat protein (input ligand: none),apparent KD of MS2 coat protein [3]
UAGCGAUUUGGUGAUACCAGACGUGUGCAGUCCUCAGACAUGAGGAUCACCCAUGUAUGCGUCCCUUGGCAGCGCUAUGAGGACA [Theo B Ex t6],66.5 nM,105 nM,44.3 nM,48.4 nM,201 nM
GCUUAGAAACCUGAUACCAGUCAGCCCUAUGACAUGAGGAUCACCCAUGUGAUACUCACGGACCCUUGGCAGCAGGGUCGAUUAC [theeternabot_sameState_MS2_Theo_B_17],231 nM,812 nM,1000 nM,,
GUUGGUUUGCGAAGGAGCGGGUAUGUUUUCUACUGGAUCCUAACAUGAGGAUCACCCAUGUCCCAGGUAGGUCGCGCGGGCUUUG [12.aA],35.6 nM,75.2 nM,45.8 nM,38.6 nM,54.5 nM
AGUGUUAUAACUGAUACCAGACCUUUGCUUAUACAUGAGGAUCACCCAUGUAAAAUGGCGGUCCCUUGGCAGCAGAGAAUACGCA [#09 Same State - Theophylline B],52.2 nM,57 nM,60.1 nM,,
CCCAGUCAUAGCAAAGCAAAUAUACUCGAAGGAGCGUCAUAGUAGGCAGGUAGGUCGCGAGACAUGAGGAUCACCCAUGUAGAGA [ooomullin],35.6 nM,46.7 nM,41.3 nM,39.7 nM,57.8 nM
UUUUUCGCGGGUGAUACCAGCAGAGUUGUACUGGUCUGGUACAUGAGGAUCACCCAUGUUUGCCCUUGGCAGCGCUCGGGAGAAG [#23 Exclusion-TheophyllineB],29.3 nM,32.1 nM,24.1 nM,19.8 nM,44.4 nM
AGCAUGUUAGCAGAUACCAGACGUUUUAUGAUCCAUGUAACAUGAGGAUCACCCAUGUAAGUCCCUUGGCAGCUGAAAUAAUGCA [JR_SSTheophyB_Sub011],75.7 nM,187 nM,127 nM,,
GACCGAUUAUAGCACGAUUGUCUUGUGGAAGGAGCGCAGAGGGCUGCAGGUAGGUCGCCACAUGAGGAUCACCCAUGUCAGGAUA [Raanti],4.57 nM,66.6 nM,46.6 nM,60 nM,59.1 nM
UUGGCAGCAUGGGUGGCUGCCAAGGCUGAUACCAGCCACGAAAGUGGCCCUUGGCAGCAGCAAACAUGAGGAUCACCCAUGUUAA [(T)''-(M)'-(T)'-(Theo)-(Ms2)_Design3],87.2 nM,105 nM,93.3 nM,86.3 nM,104 nM
AAACGUUGCUCAGAUACCAGACAUGAGGAUCACCCAUGUACCAAGGUACCCGAAAGGAAUGUCCCUUGGCAGCUGAGCAACGAAA [MAT - Exclusion Theophlline B - Mod of Eli - D21],11.1 nM,11.9 nM,10.4 nM,,
AGACAUGAGGAUCACCCAUGUAGUACGGAUACCAGAUCCAGAUGUAUCCCUUGGCAGCUGUGGUACAGCGUUACAUCGCUCGUAG [Exclusion - Theophylline A (Freestyle 21)],10.4 nM,18.4 nM,16.2 nM,13.3 nM,16.6 nM
UUCAGCUAGUCGGCCGCCACUACUUGAGGAUCACCCAGGUAGGUCCACACUGCUUCGGCAGUGAGUAGGACCGGGACUAGCUGAG,31 nM,32.2 nM,272 nM,32.8 nM,39.4 nM
CUCUGAGUGAGCAAUCACUCAGAGGCGGAUACCAGCGAGGUCCAUCGCCCUUGGCAGCCGAACAUGAGGAUCACCCAUGUCGGUA [#1 Same State - Theophylline A Attempt #22 (HarryS)],9.29 nM,13 nM,11 nM,,
GGACCAUGGAGCGAUACCAGCUUGAGUGUGCUGGCCAGGCACAUGAGGAUCACCCAUGUAAGCCCUUGGCAGCGCUCCAUGGUCC [#1 Exclusion - Theophylline B Attempt #26 (HarryS)],7.45 nM,13.3 nM,10.6 nM,8.39 nM,13.5 nM
GCAUCCUAGUCGGCCGCCACUGGUAUCAACACCUUCACCCGUGUGCACAUGAGGAUCACCCAUGUUAGGACCGGGACUAGGAUGC [SSTryp B #19],8.01 nM,12.5 nM,,,9.55 nM
ACCUGCGUUUGAUUCUAUCAGACGCAGGUUCGAGGACCGGUACGGCCGCCACUCGGACAUGAGGAUCACCCAUGUUUGACAUGGG [#04 Exclusion Tryptophan A],134 nM,281 nM,,,1010 nM
GGCCCUGCGGGCGCCCGCAGGGCCGCGGAUACCAGCGAGGUCCAUCGCCCUUGGCAGCCGAACAUGAGGAUCACCCAUGUCGGUG [Same State - Theophylline A Attempt #8 (HarryS)],10.6 nM,20.4 nM,12.9 nM,12.9 nM,89.6 nM
UUCUUUAAGUCGGCCGCCACUGAAACAUGAGGAUCACCCAUGUAUAUUUGUGUAUAGGUGGAUUACAGGACCGGGACUAUAGUAA [JR_ExcTryptoB_Sub023],15.1 nM,20.2 nM,14.7 nM,14.7 nM,15.2 nM
GCACGACAUGAGGAUCACCCAUGUGCCGAUACCAGCCGGAUAUACGGCCCUUGGCAGCGGAGUGGAUCCGGAGGACCAUGGGUAA [Same State Theophylline A GF7],2.16 nM,156 nM,92.5 nM,236 nM,250 nM
